Key:
Test in all cases: SPR (Biacore)
[1] = biological target: T1, HER3 (UniProt P21860 20-643, limits assumed)
T1 construct: Antigen as used in Biacore; also called ErbB3

[2] = biological target: T2, cMet (UniProt P08581 25-932, limits assumed)
T2 construct: Antigen as used in Biacore

[3] = biological target: T2, cMet; remark: listed apart in the source

T2 sequence (P08581 25-932 limits assumed): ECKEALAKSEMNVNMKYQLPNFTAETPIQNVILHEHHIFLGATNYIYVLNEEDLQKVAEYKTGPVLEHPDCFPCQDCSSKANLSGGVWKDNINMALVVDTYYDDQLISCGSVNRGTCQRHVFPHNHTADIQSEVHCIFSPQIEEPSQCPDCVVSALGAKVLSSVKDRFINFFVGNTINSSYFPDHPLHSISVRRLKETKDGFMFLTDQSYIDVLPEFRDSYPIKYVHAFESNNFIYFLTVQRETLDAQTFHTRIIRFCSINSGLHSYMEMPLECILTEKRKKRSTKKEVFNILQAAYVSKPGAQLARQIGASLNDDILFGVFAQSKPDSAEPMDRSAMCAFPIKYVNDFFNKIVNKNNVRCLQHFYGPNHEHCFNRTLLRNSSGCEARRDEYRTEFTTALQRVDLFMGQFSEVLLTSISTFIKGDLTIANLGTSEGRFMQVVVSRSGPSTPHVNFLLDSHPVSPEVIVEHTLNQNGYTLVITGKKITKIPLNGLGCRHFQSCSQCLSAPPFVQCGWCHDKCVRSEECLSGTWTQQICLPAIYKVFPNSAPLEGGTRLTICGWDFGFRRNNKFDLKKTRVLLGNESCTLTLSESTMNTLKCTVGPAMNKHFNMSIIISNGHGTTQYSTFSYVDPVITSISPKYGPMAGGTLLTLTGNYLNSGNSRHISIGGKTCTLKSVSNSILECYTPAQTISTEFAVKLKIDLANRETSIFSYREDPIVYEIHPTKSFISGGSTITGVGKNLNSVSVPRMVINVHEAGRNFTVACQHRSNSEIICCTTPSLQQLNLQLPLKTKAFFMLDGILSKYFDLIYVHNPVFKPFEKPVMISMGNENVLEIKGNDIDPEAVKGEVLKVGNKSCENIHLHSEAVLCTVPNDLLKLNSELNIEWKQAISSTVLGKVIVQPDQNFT

| Kd [1] | koff [1] | kon [1] | Kd [2] | koff [2] | kon [2] | fold improved affinity against the restricted form [3] | fold reduced affinity against the Wildtype Fab [3] | Binder |
| --- | --- | --- | --- | --- | --- | --- | --- | --- |
| 2.05 nM | 0.000338 s⁻¹ | 165000 M⁻¹ s⁻¹ | 6.05 nM | 0.000188 s⁻¹ | 31200 M⁻¹ s⁻¹ | – | – | Her3_MetSS_KHSS_FS1 (protease cleavage during expression) (bispecific antibody, Trivalent Her3-cMet bispecific: full length anti-Her3 IgG with knobs-into-holes, cMet dsFv (VHCys44/VLCys100) at the C-termini; Arg/Lys residues before the cleavage site were removed) heavy 1: not shown heavy 2: not shown ALGGGGSGGGGSDIQMTQSPSSLSASVGDRVTITCKSSQSLLYTSSQKNYLAWYQQKPGKAPKLLIYWASTRESGVPSRFSGSGSGTDFTLTISSLQPEDFATYYCQQYYAYPWTFGCGTKVEIKR light: DIQMTQTTSSLSASLGDRVTISCRARQDISNYLNWYQRKPDGTVKLLIYYTSRLHSGVPSRFSGSGSGTDYSLTISNLEQEDIATYFCQQGNTFPWTFGGGTKLEIKRTVAAPSVFIFPPSDEQLKSGTASVVCLLNNFYPREAKVQWKVDNALQSGNSQESVTEQDSKDSTYSLSSTLTLSKADYEKHKVYACEVTHQGLSSPVTKSFNRGEC |
| 2.02 nM | 0.000356 s⁻¹ | 176000 M⁻¹ s⁻¹ | 8.35 nM | 0.000203 s⁻¹ | 24300 M⁻¹ s⁻¹ | > 30 fold | – | Her3_MetSS_KHSS_PreSci_digested (after purification and protease cleavage) (bispecific antibody, the VL stays attached through the dsFv disulfide) heavy 1: not shown heavy 2: not shown GPSGGGGSGGGGSDIQMTQSPSSLSASVGDRVTITCKSSQSLLYTSSQKNYLAWYQQKPGKAPKLLIYWASTRESGVPSRFSGSGSGTDFTLTISSLQPEDFATYYCQQYYAYPWTFGCGTKVEIKR light: DIQMTQTTSSLSASLGDRVTISCRARQDISNYLNWYQRKPDGTVKLLIYYTSRLHSGVPSRFSGSGSGTDYSLTISNLEQEDIATYFCQQGNTFPWTFGGGTKLEIKRTVAAPSVFIFPPSDEQLKSGTASVVCLLNNFYPREAKVQWKVDNALQSGNSQESVTEQDSKDSTYSLSSTLTLSKADYEKHKVYACEVTHQGLSSPVTKSFNRGEC |
| 2.4 nM | 0.000414 s⁻¹ | 172000 M⁻¹ s⁻¹ | 369 nM | 0.000197 s⁻¹ | 533 M⁻¹ s⁻¹ | – | > 20 fold | Her3_MetSS_KHSS_PreSci (purified intermediate) (bispecific antibody, human IgG1, kappa, also called restricted dsFv module; double-tethered dsFv) heavy 1: not shown heavy 2: not shown light: DIQMTQTTSSLSASLGDRVTISCRARQDISNYLNWYQRKPDGTVKLLIYYTSRLHSGVPSRFSGSGSGTDYSLTISNLEQEDIATYFCQQGNTFPWTFGGGTKLEIKRTVAAPSVFIFPPSDEQLKSGTASVVCLLNNFYPREAKVQWKVDNALQSGNSQESVTEQDSKDSTYSLSSTLTLSKADYEKHKVYACEVTHQGLSSPVTKSFNRGEC |
| – | – | – | 7.05 nM | 0.000193 s⁻¹ | 27400 M⁻¹ s⁻¹ | – | – | Her3_MetSS_KHSS_FS2 (protease cleavage during expression) (bispecific antibody, As m1 but with furin site variant 2) heavy 1: not shown heavy 2: not shown SLGGGGSGGGGSDIQMTQSPSSLSASVGDRVTITCKSSQSLLYTSSQKNYLAWYQQKPGKAPKLLIYWASTRESGVPSRFSGSGSGTDFTLTISSLQPEDFATYYCQQYYAYPWTFGCGTKVEIKR light: DIQMTQTTSSLSASLGDRVTISCRARQDISNYLNWYQRKPDGTVKLLIYYTSRLHSGVPSRFSGSGSGTDYSLTISNLEQEDIATYFCQQGNTFPWTFGGGTKLEIKRTVAAPSVFIFPPSDEQLKSGTASVVCLLNNFYPREAKVQWKVDNALQSGNSQESVTEQDSKDSTYSLSSTLTLSKADYEKHKVYACEVTHQGLSSPVTKSFNRGEC |

From patent US20130267686A1 (HOFFMAN LA ROCHE, published 2013)
